Experimental data taken from article PMC11718114.
Changes are numbered by the printed parent chain. Numbers in names are those of the source.

Molecular target: PI3Kα-RBD (PIK3CA-RBD(157-289)), P42336
Experiment: ITC
Details: chain shown with the change;; parent: est. 8.0 µM; read off a plot

B1: RRAS2 (wild type), P62070 F75A (protein)
chain: MAAAGWRDGSGQEKYRLVVVGGGGVGKSALTIQFIQSYFVTDYDPTIEDSYTKQCVIDDRAARLDILDTAGQEEAGAMREQYMRTGEGFLLVFSVTDRGSFEEIYKFQRQILRVKDRDEFPMILIGNKADLDHQRQVTQEEGQQLARQLKVTYMEASAKIRMNVDQAFHELVRVIRKFQ
Kd: 21 µM

B2: RRAS2 (wild type), P62070 E74A (protein)
chain: B1 chain with E74A, A75F
Kd: 12 µM

B3: RRAS2 (wild type), P62070 M78A (protein)
chain: B1 chain with A75F, M78A
Kd: 130 µM
